Test [1] addresses Listeria monocytogenes ClpP2 homotetradecamer (LmClpP2), unmodified (Listeria monocytogenes). As to the kind of experiment: not stated; oligomeric state of LmClpP2 after treatment with inhibitors (E2, D3, Aoc-CMK, Leu-CMK), Fig. S4; method and conditions are in the ESI.
In test [2] the target is LmClpP2 treated with beta-lactone D3 (Listeria monocytogenes). The test is described as above.
Test [3] has as its target Listeria monocytogenes ClpX chaperone (LmClpX) (Listeria monocytogenes) (UniProt Q8Y7K9).
The target is the same in test [4]. This is another data set of the same source.
Test [5] addresses T1, LmClpP2 (Listeria monocytogenes, UniProt Q9RQI6).
T1 construct: gene clpP; purified homotetradecamer; construct details in ESI
Nature of the test: peptidase assay, Ac-Ala-hArg-Leu-ACC hydrolysis. Type of test: biochemical. To be noted: 1 μM ClpP; 200 μM substrate; inhibitor 1, 10, 100 μM; no ClpX; covalent.

The target of test [6] is T2, LmClpXP2 (Listeria monocytogenes, UniProt Q9RQI6).
T2 construct: gene clpP; ClpP2 homotetradecamer (LmClpP14) with hexameric chaperone LmClpX6
As to the kind of experiment: proteolysis of GFP-SsrA, fluorescence. The class given is biochemical. To be noted: with LmClpX; inhibitor 1, 10, 100 μM; covalent; inhibition.

Test [7] concerns the target Listeria monocytogenes ClpX chaperone (LmClpX) (Listeria monocytogenes) (UniProt Q8Y7K9). This is another data set of the same source.
Test [8] deals with partially Aoc-CMK-modified LmClpP2 homotetradecamer (Listeria monocytogenes). As to the kind of experiment: not stated; oligomeric state of LmClpP2 after treatment with inhibitors (E2, D3, Aoc-CMK, Leu-CMK), Fig. S4; method and conditions are in the ESI.
Test [9] addresses LmClpP2 treated with Leu-CMK (Listeria monocytogenes). The test is described as above.
Test [10] addresses T2, LmClpXP2. As to the kind of experiment: proteolysis of GFP-SsrA, fluorescence. The class given is biochemical.

Where a SMILES comes first, the peptide text is derived from it. [ ]: non-standard residue; d: D form. The star is where a group is joined. Phe(3,4-Cl2) = N[C@@H](Cc1ccc(Cl)c(Cl)c1)C(=O)O; hArg = N=C(N)NCCCC[C@H](N)C(=O)O; Aoc(2) = CCCCCC[C@H](N)C(=O)O; CH2Cl = ClC*

As usually defined, the stoichiometry N is a count of units in the complex or per binding partner. “Listeria monocytogenes ClpP2 homotetradecamer (LmClpP2), unmodified (enzyme)” came in with a stoichiometry N in [1] of 14.
In the case of “LmClpP2 treated with beta-lactone D3 (enzyme)”, the stoichiometry N in [2] was 14.
On to “LmClpP1/2 heterocomplex containing Ser98 to Ala mutations”, for which the K app from unfolding activity on GFP-LmSsrA (0.125 uM) with 0.4 uM LmClpX6 and varying concentrations of LmClpP14 (S98A heterocomplex) in test [3] amounted to 224 nM.
Compound “LmClpP1/2 heterooligomeric complex, wild type (LmClpP1^wt/2^wt)” displayed a K app from protease activity of LmClpXP1/2 at varying concentrations of LmClpP1/2 (LmClpP14) in test [4] of 85 nM.
For the compound LmClpP2(S98A) homocomplex (enzyme), the K app from unfolding activity on GFP-LmSsrA (0.125 uM) with 0.4 uM LmClpX6 and varying concentrations of LmClpP14 (S98A homocomplex) in test [3] was determined as 2360 nM.
Consider `COC(=O)c1ccc(OC(=O)CCc2cc(OC)c(OC)c(OC)c2)cc1` [AV170], for which the “% activity” value is “AV170 and both CMK inhibitors were the most effective against LmClpP2” in [5]; “AV170 turned out to be the most effective inhibitor against each complex” in test [6].
With “partially Aoc-CMK-modified LmClpP2 homotetradecamer (enzyme)”, the protease activity (GFP-SsrA degradation) of LmClpXP2 at incremental Aoc-CMK concentrations, DMSO control as 100%; strongest at 5 uM Aoc-CMK, abolished at 50 uM in test [7] worked out at 162%. The compound further had a stoichiometry N in test [8] of 14.
In the case of LmClpP2 treated with Leu-CMK (enzyme), the stoichiometry N in [9] came out at 14.
On to `CCCCCC[C@H](NC(=O)[C@H](CCCCNC(=N)N)NC(=O)[C@H](Cc1ccc(Cl)c(Cl)c1)NC(C)=O)C(=O)CCl` [Aoc-CMK] (Ac-[Phe(3,4-Cl2)]-[hArg]-[Aoc(2)]-CH2Cl), for which the activity at 5 µM in test [10] came to 162%.

The values above are taken from article PMC5361862, “Insights into ClpXP proteolysis: heterooligomerization and partial deactivation enhance chaperone affinity and substrate turnover in Listeria monocytogenes” (Chemical Science, 2016).
